Values of other authors, collected in paper PMC8466385.

Molecular target: Tyr411 (UniProt position 435, ALLVRYTKKVP)
Assay: kinetics
Conditions: not stated for the pKa values (Table 1 footnote c gives 22.0 °C for kinetic parameters from the same reference)

## Human serum albumin (HSA) (Homo sapiens)
HSA:NphODe (p-nitrophenyl decanoate) substrate complex
  pKa: 7.0
HSA:NphOHe (p-nitrophenyl hexanoate) substrate complex
  pKa: 7.6
substrate-free HSA
  pKa: 8.9
